Test results: article PMC5438440

Biological target: human μ receptor (human) (UniProt P35372)
Chain of UniProt P35372 (P35372 whole entry): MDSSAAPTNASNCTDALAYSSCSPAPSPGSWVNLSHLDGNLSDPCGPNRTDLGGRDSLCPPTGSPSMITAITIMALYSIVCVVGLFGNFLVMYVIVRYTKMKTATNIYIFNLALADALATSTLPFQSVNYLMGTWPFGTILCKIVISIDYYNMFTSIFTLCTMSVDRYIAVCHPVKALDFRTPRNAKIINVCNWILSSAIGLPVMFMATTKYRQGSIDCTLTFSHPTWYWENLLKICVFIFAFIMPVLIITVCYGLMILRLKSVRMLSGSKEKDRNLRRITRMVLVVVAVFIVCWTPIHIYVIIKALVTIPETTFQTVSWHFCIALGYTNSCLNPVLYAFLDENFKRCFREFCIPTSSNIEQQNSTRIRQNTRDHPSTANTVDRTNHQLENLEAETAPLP

EC50 of the FRET signal increase (cAMP decrease) of the Epac sensor H187 in single HEK293 cells co-expressing μR, increasing concentrations of DAMGO, no forskolin pre-treatment: 91 pM
Substance: DAMGO (peptide)
